In patent CN115368448A (HEFEI TIANGANG IMMUNOLOGY PHARMACEUTICAL CO LTD, dated 2022):

Tests used:
[1] = biological target: T1, CD33 on human acute myeloid leukaemia HL-60 tumour cells (human, UniProt P20138 18-364); experiment: flow cytometry on HL-60 cells, Alexa-647 anti-human Fc secondary
T1 construct: whole, on cells; also called 人急性髓系细胞白血病HL-60肿瘤细胞; HL-60细胞

[2] = biological target: T2, CD27蛋白 (SEQ ID NO:27), expressed on transduced cells (Homo sapiens (Human), UniProt P26842 20-260); experiment: flow cytometry on CHO-K1-CD27 cells, Alexa-647 anti-human Fc secondary
T2 construct: The entry includes the signal peptide; also called CHO-K1-CD27细胞; Jurkat-NFAT-lucia-CD27细胞
T2 sequence: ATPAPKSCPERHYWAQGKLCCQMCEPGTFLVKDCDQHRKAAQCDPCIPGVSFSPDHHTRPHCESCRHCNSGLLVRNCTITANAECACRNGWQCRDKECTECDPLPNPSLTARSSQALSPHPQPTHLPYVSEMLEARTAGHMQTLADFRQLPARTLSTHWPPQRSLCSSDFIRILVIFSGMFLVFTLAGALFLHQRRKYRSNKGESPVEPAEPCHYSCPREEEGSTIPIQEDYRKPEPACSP

[3] = biological target: T3, CD33蛋白 (SEQ ID NO:29), expressed on transduced cells (Homo sapiens (Human), UniProt P20138 18-364); experiment: flow cytometry on CHO-K1-CD33 cells, Alexa-647 anti-human Fc secondary
T3 construct: The entry includes the signal peptide; also called CHO-K1-CD33细胞; A375-CD33细胞

[4] = biological target: T4, CD27 on human peripheral blood CD8+ T cells (human, UniProt P26842 20-260); experiment: flow cytometry on human PBMC gated on CD8+ T cells, Alexa-647 anti-human Fc secondary
T4 construct: whole, on cells; also called 人外周血T细胞; 人外周血CD8+ T细胞
T4 sequence (looked up): T2 sequence

Measured: binding result

T3 sequence (P20138 18-364 limits assumed): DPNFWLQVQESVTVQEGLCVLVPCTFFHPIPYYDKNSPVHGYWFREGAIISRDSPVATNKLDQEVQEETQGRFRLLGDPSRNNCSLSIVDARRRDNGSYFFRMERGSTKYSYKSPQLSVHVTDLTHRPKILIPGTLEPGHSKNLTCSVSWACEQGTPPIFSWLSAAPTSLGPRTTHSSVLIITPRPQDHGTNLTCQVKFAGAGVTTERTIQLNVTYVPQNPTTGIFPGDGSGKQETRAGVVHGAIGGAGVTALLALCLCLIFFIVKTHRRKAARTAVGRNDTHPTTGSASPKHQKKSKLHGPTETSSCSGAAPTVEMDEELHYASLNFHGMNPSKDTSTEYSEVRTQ
T1 sequence (P20138 18-364): as the sequence (P20138 18-364 limits assumed) above

B1: CD27×CD33双特异抗体 (bispecific antibody, human IgG1, kappa, L234A L235A)
chain: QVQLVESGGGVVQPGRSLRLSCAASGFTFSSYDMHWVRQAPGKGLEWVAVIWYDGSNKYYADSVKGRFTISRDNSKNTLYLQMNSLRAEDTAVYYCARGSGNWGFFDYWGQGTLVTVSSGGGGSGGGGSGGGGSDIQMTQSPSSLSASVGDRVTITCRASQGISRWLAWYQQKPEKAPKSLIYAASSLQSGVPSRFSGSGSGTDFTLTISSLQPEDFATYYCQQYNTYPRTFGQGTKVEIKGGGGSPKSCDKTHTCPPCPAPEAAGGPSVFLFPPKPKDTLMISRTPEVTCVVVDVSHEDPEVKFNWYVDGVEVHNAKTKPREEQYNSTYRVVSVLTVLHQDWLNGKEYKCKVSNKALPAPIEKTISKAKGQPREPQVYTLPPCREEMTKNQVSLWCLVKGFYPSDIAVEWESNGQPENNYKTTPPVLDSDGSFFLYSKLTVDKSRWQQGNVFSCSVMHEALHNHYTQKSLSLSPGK
heavy: EVQLVQSGAEVKKPGSSVKVSCKASGYTITDSNIHWVRQAPGQSLEWIGYIYPYNGGTDYNQKFKNRATLTVDNPTNTAYMELSSLRSEDTAFYYCVNGNPWLAYWGQGTLVTVSSASTKGPSVFPLAPSSKSTSGGTAALGCLVKDYFPEPVTVSWNSGALTSGVHTFPAVLQSSGLYSLSSVVTVPSSSLGTQTYICNVNHKPSNTKVDKKVEPKSCDKTHTCPPCPAPEAAGGPSVFLFPPKPKDTLMISRTPEVTCVVVDVSHEDPEVKFNWYVDGVEVHNAKTKPREEQYNSTYRVVSVLTVLHQDWLNGKEYKCKVSNKALPAPIEKTISKAKGQPREPQVCTLPPSREEMTKNQVSLSCAVKGFYPSDIAVEWESNGQPENNYKTTPPVLDSDGSFFLVSKLTVDKSRWQQGNVFSCSVMHEALHNHYTQKSLSLSPGK
light: DIQLTQSPSTLSASVGDRVTITCRASESLDNYGIRFLTWFQQKPGKAPKLLMYAASNQGSGVPSRFSGSGSGTEFTLTISSLQPDDFATYYCQQTKEVPWSFGQGTKVEVKRTVAAPSVFIFPPSDEQLKSGTASVVCLLNNFYPREAKVQWKVDNALQSGNSQESVTEQDSKDSTYSLSSTLTLSKADYEKHKVYACEVTHQGLSSPVTKSFNRGEC
notes: Three-chain knob-into-hole heterodimer (scFv-Fc knob arm against CD27, Fab-Fc hole arm against CD33), human IgG1 L234A/L235A constant regions; made in ExpiCHO cells, purified on Protein A; also called 抗体CD27×CD33; 双特异抗体CD27×CD33
binds: [1] | [2] | [3] | [4]
